Data reported in publication PMC8670446.

Biological target: His-tagged luciferase, heat-aggregated on the BLI sensor [luciferase: P08659]
Assay: BLI; protein aggregate immobilised on the sensor (His-tagged luciferase on Ni-NTA); Ssa1 variant together with Sis1 WT in solution, 1 µM each unless specified differently; buffer A (25 mM Hepes-KOH pH 8.0, 75 mM KCl, 15 mM MgCl2) with 2 mM DTT and 5 mM ATP; the signal is that of both chaperones

His-tagged luciferase, heat-aggregated on the BLI sensor [luciferase: P08659], sequence (P08659 whole entry): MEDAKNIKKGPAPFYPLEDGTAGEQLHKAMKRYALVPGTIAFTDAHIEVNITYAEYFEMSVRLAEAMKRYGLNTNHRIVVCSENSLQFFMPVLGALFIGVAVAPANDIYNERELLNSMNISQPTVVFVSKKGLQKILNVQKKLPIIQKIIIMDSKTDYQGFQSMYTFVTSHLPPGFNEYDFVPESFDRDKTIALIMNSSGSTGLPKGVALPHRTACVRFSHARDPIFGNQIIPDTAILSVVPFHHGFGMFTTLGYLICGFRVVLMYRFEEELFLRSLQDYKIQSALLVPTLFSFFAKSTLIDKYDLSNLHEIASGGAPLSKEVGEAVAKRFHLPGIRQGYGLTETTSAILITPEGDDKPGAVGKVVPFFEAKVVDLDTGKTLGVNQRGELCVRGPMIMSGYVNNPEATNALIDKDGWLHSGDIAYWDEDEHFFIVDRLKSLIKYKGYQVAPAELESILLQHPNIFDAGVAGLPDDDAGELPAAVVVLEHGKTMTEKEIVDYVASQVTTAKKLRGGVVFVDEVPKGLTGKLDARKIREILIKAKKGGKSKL
Ssa1, sequence (P10591 whole entry): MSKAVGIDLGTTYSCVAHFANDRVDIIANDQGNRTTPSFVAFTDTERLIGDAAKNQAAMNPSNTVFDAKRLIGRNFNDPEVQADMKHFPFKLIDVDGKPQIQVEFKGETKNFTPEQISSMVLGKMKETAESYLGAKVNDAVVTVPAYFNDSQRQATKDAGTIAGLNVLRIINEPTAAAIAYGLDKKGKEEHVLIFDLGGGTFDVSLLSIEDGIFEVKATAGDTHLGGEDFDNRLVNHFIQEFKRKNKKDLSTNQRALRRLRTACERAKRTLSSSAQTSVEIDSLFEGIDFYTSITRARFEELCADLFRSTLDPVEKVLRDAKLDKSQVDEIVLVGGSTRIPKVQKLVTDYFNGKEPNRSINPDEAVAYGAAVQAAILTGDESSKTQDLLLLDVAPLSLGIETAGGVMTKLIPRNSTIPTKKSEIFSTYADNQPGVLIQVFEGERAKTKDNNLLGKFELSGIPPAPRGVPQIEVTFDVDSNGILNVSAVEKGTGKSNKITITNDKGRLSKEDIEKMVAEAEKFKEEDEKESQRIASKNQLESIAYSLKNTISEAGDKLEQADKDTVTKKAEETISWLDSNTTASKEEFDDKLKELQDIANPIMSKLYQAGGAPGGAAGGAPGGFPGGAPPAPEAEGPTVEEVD

## Ssa1 (from UniProt P10591 1-642) (natural protein)
  BLI layer thickness (Sis1 and Ssa1 together): 7 nm
